The values below come from patent US20220281966A1 (Amgen, published 2022).

A word on the Kd: it is a measure of binding affinity in units of concentration. Broadly, the koff is the rate constant with which the complex falls apart. A word on the kon: it is the rate constant with which the complex forms.

The target of assay [1] is T1, IL-13 (human IL-13, preparation not specified) (human, UniProt P35225 35-146, limits assumed). Nature of the assay: cell-based or functional assay.
Assay [2] addresses T2, mouse IL-13 (mouse, UniProt P20109 21-131, limits assumed).
T2 sequence (looked up): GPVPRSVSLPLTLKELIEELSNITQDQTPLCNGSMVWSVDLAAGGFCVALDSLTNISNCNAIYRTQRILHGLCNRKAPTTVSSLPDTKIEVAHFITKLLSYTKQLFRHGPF
Nature of the assay: ELISA, epitope mapping with chimeras. (ELISA stands for enzyme-linked immunosorbent assay.)

Assay [3] addresses T3, Human IL-13-Mouse IL-13 Helix D chimera (human with mouse Helix D).
T3 construct: also called Mo HelixD
T3 chain: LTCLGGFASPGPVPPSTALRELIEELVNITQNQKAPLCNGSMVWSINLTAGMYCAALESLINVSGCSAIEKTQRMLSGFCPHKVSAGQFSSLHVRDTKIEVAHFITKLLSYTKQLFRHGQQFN
Kind of assay: ELISA on secreted chimeric IL-13.

In assay [4] the target is T4, Recombinant Human IL-13 (R&D 213-IL-005) (human, UniProt P35225 35-146). Kind of assay: Biacore 2000, mAb captured on goat anti-human surface, IL-13 (R&D) injected, 1:1 fit; first run. Background: In SPR one partner is held on a chip, and binding of the other changes the refractive index at the surface.
T4 sequence (P35225 35-146 limits assumed): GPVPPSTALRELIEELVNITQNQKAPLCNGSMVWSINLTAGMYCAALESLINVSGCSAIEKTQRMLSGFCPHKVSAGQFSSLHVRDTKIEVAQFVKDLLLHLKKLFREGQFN
Assay [5] has as its target T4, Recombinant Human IL-13 (R&D 213-IL-005). Nature of the assay: Biacore 2000, mAb captured on goat anti-human surface, IL-13 (R&D) injected, 1:1 fit; second run.
Assay [6] has as its target T5, native human IL-13 (human, UniProt P35225 25-146).
T5 construct: mature; Secreted by stimulated PBMCs; also called hIL-13 (KinExA)
Nature of the assay: KinExA, Kinetic Direct method. Background: A kinetic exclusion assay measures how much of one partner remains free in solution.

Assay [7] addresses T5, native human IL-13. Nature of the assay: KinExA, Kinetic inject method.
The target in assay [8] is T5, native human IL-13. Kind of assay: KinExA equilibrium in solution.
Assay [9] has as its target T6, native macaque monkey IL-13 (macaque monkey, UniProt Q0PW92 19-132).
T6 construct: also called native macaque IL-13
Nature of the assay: KinExA equilibrium in solution.

For assay [10], the target named is T5, native human IL-13. Nature of the assay: KinExA, Kinetic Direct method (KD repeated from Table 10).
Assay [11] addresses T5, native human IL-13. Nature of the assay: KinExA, Kinetic Direct method; calculated from kon and KD.
For assay [12], the target named is T5, native human IL-13. Nature of the assay: KinExA, Kinetic inject method (KD repeated from Table 10).
Assay [13] addresses T5, native human IL-13. Nature of the assay: KinExA, Kinetic inject method; calculated from kon and KD.
The target of assay [14] is T4, Recombinant Human IL-13 (R&D 213-IL-005). Kind of assay: Biacore 2000, mAb captured on goat anti-human surface, IL-13 (R&D) injected, 1:1 fit.
Assay [15] deals with T7, Human IL-13-rabbit Fc fusion protein (human).
T7 construct: also called IL-13-RbFc; IL-13RbFc
T7 sequence (chain, as listed by the source limits assumed): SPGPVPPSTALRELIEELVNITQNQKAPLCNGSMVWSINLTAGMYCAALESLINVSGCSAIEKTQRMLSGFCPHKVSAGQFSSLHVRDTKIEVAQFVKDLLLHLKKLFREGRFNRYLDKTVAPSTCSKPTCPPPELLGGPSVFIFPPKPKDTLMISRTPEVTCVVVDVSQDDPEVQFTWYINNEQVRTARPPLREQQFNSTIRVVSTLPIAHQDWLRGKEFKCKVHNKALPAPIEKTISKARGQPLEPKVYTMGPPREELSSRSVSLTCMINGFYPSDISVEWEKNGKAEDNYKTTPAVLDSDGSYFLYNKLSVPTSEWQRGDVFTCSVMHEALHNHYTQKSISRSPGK
Kind of assay: ELISA on plates coated with IL-13RbFc, antibody without soluble competitor, detection rabbit anti Hu IgG Fc HRP.

The target of assay [16] is T1, IL-13 (human IL-13, preparation not …). Kind of assay: cell-based or functional assay. The source holds these as a separate data set.

T1 sequence (P35225 35-146 limits assumed): as the sequence (P35225 35-146 limits assumed) above
T6 sequence (Q0PW92 entry or part of it limits assumed): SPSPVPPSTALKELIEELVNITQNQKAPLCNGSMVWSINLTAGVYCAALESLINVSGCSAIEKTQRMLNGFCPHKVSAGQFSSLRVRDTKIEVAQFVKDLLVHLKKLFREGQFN

B1: antibody 785 (antibody, V domains shown)
VH: not shown
VL: SYVLTQPPSVSVAPGQTARITCGGNNIGNKIVHWYQQKPGQAPVLVVYDDSDRPSGIPERFSGSNSGNTATLTISRVEAGDEADYYCQVWDSSSDHVVFGGGTKLTVL
notes: lambda light chain
Consider B1, for which, in assay [1], the “IC50, Eotaxin-1 assay, Average” value turned out to be 0.176 nM; the “IC50, Eotaxin-1 assay, n = 1” value was 0.223 nM; the “IC50, Eotaxin-1 assay, n = 2” value stood at 0.144 nM; the “IC50, Eotaxin-1 assay, n = 3” value turned out to be 0.16 nM. Also, the binding result in assay [2] is given as “no binding”. Further, in assay [3], the binding result was “no binding”.

B2: antibody 693 (antibody, V domains shown)
VH: QVQLQESGPGLVKPSETLSLTCSVSGGSISSYYWSWIRQPAGKGLEWIGRIYMTGRTNYNSSLKSRVTMSIDTSKNQLSLKLSFMTAADTAVYYCARESGSSYSYDYWGQGTLVTVSS
VL: SYVLTQPPSVSVAPGQTARITCGGNNIGSKGVHWYQQKPGQAPVLVVYDDSDRPSGIPERFSGSNSGNTATLTISRVEAGDEADYYCQVWVSSSDHHVVFGGGTKLTVV
notes: also called sc693
As for B2, in [1], the “IC50, Eotaxin-1 assay, Average” value came to 0.054 nM; the “IC50, Eotaxin-1 assay, n = 1” value stood at 0.038 nM; the “IC50, Eotaxin-1 assay, n = 2” value came to 0.069 nM; the “IC50, Eotaxin-1 assay, n = 3” value came out at 0.053 nM. For the same molecule, in assay [2], the binding result is listed as “no binding”. The binding result in assay [3] is on record as “no binding”. Further, in assay [4], the Kd was 0.189 nM, the koff came to 0.00038 s⁻¹ and the on-rate (kon) was determined as 2e+06 M⁻¹ s⁻¹. Also, in assay [5], the Kd was determined as 0.109 nM, the koff was 0.00027 s⁻¹ and the on-rate constant (kon) worked out at 2.5e+06 M⁻¹ s⁻¹.

B3: antibody 11.18.3 (antibody, V domains shown)
VH: QVQLVESGGGVVQPGRSLRLSCVASGFTFSSYDMHWVRQAPGKGLEWVAVIWYDGSNKYYADSVQGRFTISRDNSKNTLYLQMNSLRAEDTAVYYCTSEDSSGWYDGWFDPWGQGTLVTVSS
VL: DIQMTQSPSSLSASVGDRVTITCRASQGISNYLAWYQQKPGKVPKVLIYAASTLQSGVPSRFSGSGSGTDFTLTISSLQPEDVATYYCQKYNSAPFTFGPGTKVDIK
Consider B3, for which, in assay [1], the “IC50, Eotaxin-1 assay, Average” value came out at 0.245 nM; the “IC50, Eotaxin-1 assay, n = 1” value is 0.213 nM; the “IC50, Eotaxin-1 assay, n = 2” value was determined as 0.304 nM; the “IC50, Eotaxin-1 assay, n = 3” value is 0.217 nM.

B4: antibody 353 (antibody, V domains shown)
VH: QVQLQESGPGLVKPSETLSLTCTVSGGSISTYYWSWIRQPPGKGLEWIGYIYYSGSTNYNPSLKSRVTISVDTSKNQFSLKLSSVTAADTAVYYCARDGGHYWDDAFDIWGQGTMVTVSS
VL: DIQMTQSPSSLSASVGDRVTITCRASQGIRNDLDWYQQKPGKAPKRLIYDASSLQSGVPSRFSGSGSGTEFTLTISSLQPEDFATYYCLQHDSYPFTFGPGTKVDIK
On to B4, for which, in assay [1], the “IC50, Eotaxin-1 assay, Average” value amounted to 0.101 nM; the “IC50, Eotaxin-1 assay, n = 1” value came out at 0.099 nM; the “IC50, Eotaxin-1 assay, n = 2” value is 0.123 nM; the “IC50, Eotaxin-1 assay, n = 3” value is 0.08 nM.

B5: antibody 623 (antibody, V domains shown)
VH: EVQLVESGGGLVKPGGSLRLSCAASGFTFSNAWMSWVRQAPGKGLEWVGRIRSEIDGGTTNYAAPVKGRFTISRDDSKNTLYLQMNSLKTEDTAVYYCATDQVGAYYGDYYGMDVWGQGTLVTVSS
VL: SYELTQPPSVSVSPGQTARITCSGDALPEKYAYWYQQKSGQAPVLVIYEDSKRPSGIPERFSGSSSGTMATLTISGAQVEDEADYYCHSTDSSGNHGVFGGGTKLTVL
On to B5, for which the “IC50, Eotaxin-1 assay, Average” value in assay [1] stood at 0.036 nM. In assay [1], the “IC50, Eotaxin-1 assay, n = 1” value is 0.031 nM. Further, in [1], the “IC50, Eotaxin-1 assay, n = 2” value was determined as 0.04 nM. In addition, the “IC50, Eotaxin-1 assay, n = 3” value in assay [1] was found to be 0.035 nM. For the same molecule, the kon in assay [6] was determined as 1.1e+07 M⁻¹ s⁻¹; in assay [7], 1.5e+07 M⁻¹ s⁻¹; in assay [14], 4.9e+06 M⁻¹ s⁻¹. The Kd in assay [8] was 0.024 nM; in assay [9] it was 0.037 nM; in [10] it was 0.024 nM; in assay [12], 0.024 nM; in assay [14], 0.052 nM. Besides, the binding result in [2] is recorded as “no binding”; in assay [15] it was “binds”. Moreover, the koff in assay [11] was 0.00027 s⁻¹; in [13], 0.00036 s⁻¹; in assay [14], 0.00025 s⁻¹.

B6: antibody 643 (antibody, V domains shown)
VH: EVQLVESGGGLVKPGGSLRLSCAASGFTFSNAWMSWVRQAPGKGLEWVGRIRSEIDGGTTNYAAPVKGRFTISRDDSKNTLYLQMNSLRTEDTAVYYCATDQVGAYYGDYYGMDVWGQGTLVTVSS
VL: SYELTQPPSVSVSPGQTARITCSGDALPEKYAYWYQQKSGQAPVLVIYEDSKRPSGIPERFSGSSSGTMATLTISGAQVEDEADYYCHSTDSSGNHGVFGGGTKLTVL
notes: also called Ab 643; mAb 643
Take B6: in assay [1], the “IC50, Eotaxin-1 assay, Average” value stood at 0.035 nM; the “IC50, Eotaxin-1 assay, n = 1” value worked out at 0.044 nM; the “IC50, Eotaxin-1 assay, n = 2” value was 0.028 nM; the “IC50, Eotaxin-1 assay, n = 3” value is 0.033 nM. In [16], the “IC50 (read off the curve)” value was about 0.03 nM. Besides, in assay [8], the dissociation constant (Kd) was determined as 0.013 nM. The binding result in [2] is “no binding”. In assay [14], the dissociation constant (Kd) was 0.066 nM, the koff amounted to 0.00029 s⁻¹ and the kon stood at 4.4e+06 M⁻¹ s⁻¹.

B7: antibody 602 (antibody, V domains shown)
VH: EVQLVESGGGLVKPGGSLRLSCAASGFTFSNAWMSWVRQAPGKGLEWVGRIRSKIDGGTINYAAPVKGRFTISRDDSKNTLYLQMNSLKTEDTAVYYCATDQVGAYYGDYYGMDVWGQGTLVTVSS
VL: SYELTQPPSVSVSPGQTARITCSGDALPEKYAYWYQQKSGQAPVLVIYEDTKRPSGIPERFSGSSSGTMATLTISGAQVEDEADYYCYSTDSSGNHGVFGGGTKLTVL
notes: also called mAb 602
For the molecule B7, in assay [1], the “IC50, Eotaxin-1 assay, Average” value was 0.066 nM; the “IC50, Eotaxin-1 assay, n = 1” value amounted to 0.08 nM; the “IC50, Eotaxin-1 assay, n = 2” value was determined as 0.053 nM. Also, in assay [2], the binding result is listed as “no binding”. In [14], the Kd was 0.172 nM, the koff stood at 0.00051 s⁻¹ and the kon was 3e+06 M⁻¹ s⁻¹.
